Data from the supplement of paper PMC9732359.
± gives the uncertainty stated by the source.

Assay: protein stability index of a GFP-peptide fusion (yeast GPS) (PSI 1-4); higher = more stable; sorted into four equal gates, so the index is relative within each strain
Summary of the method: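 Plasmids isolated from each sorting gate were PCR-amplified and Illumina-sequenced, and barcodes assigned the reads to strains. The gates, four of equal size, were set by GFP/Cherry fluorescence ratio on mid-log cultures in leucine-free medium. These cultures were yeast carrying a pooled library of tiled 17-residue yeast protein peptides fused downstream of GFP on a plasmid that also expresses Cherry. The protein stability index is the sum of every gate's read frequency times its gate number.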

Sequence	protein stability index (doa10∆)	protein stability index (pdr5∆)	protein stability index (san1∆)	protein stability index (ubr1∆)
AHTPMLQMYSKIRRHPN [FAS1]	2.81 ± 0.051	3.03 ± 0.063	2.96 ± 0.06	2.95 ± 0.048
AIGCIERSDLLPYLSDT [YJR042W/NUP85]	2.96 ± 0.095	2.96 ± 0.098	2.8 ± 0.075	3.06 ± 0.13
AIKKKEKLLRHVDSLIE [SRB7]	3.15 ± 0.094	2.88 ± 0.12	3.2 ± 0.094	3.27 ± 0.1
AIVVGWRAIIKAIFPNT [FAS1]	2.44 ± 0.1	2.71 ± 0.14	2.41 ± 0.086	2.33 ± 0.15
AKEVYKIHQQLLFKARL [GAL11]		3.18 ± 0.18		2.84 ± 0.25
AKICALLFFNFSHSLTT [NUT1]	1.43 ± 0.045	1.45 ± 0.036	1.4 ± 0.051	1.27 ± 0.026
AKKLIQSLPPTLKVNRL [RPL38]	2.15 ± 0.039	2.2 ± 0.039	2.02 ± 0.048	2.27 ± 0.036
AKKLSSFDFGNENEDED [ARP9]	3.24 ± 0.11	3.13 ± 0.12		3.15 ± 0.087
AKKSTTISKESTPDQRK [ESC2]	2.59 ± 0.1	2.78 ± 0.12	2.94 ± 0.13	2.92 ± 0.054
AKLLQENDTTLVKTKEL [FAS1]	2.66 ± 0.14	2.08 ± 0.27		
AKLSERSNGSVASLSKR [YJL039C/NUP192]	2.33 ± 0.052	2.06 ± 0.043	1.81 ± 0.054	1.89 ± 0.035
AKNKSTRINGLNSNNSI [REC8]	3.43 ± 0.14	3.15 ± 0.098	3.25 ± 0.061	3.27 ± 0.073
AKPDEKKNDEVSKPAFS [YJL041W/NSP1]		3.11 ± 0.19	2.94 ± 0.29	3.2 ± 0.14
AKPFQVTKEYFQDVYDL [FAS1]	2.96 ± 0.12	2.81 ± 0.074	2.4 ± 0.088	2.72 ± 0.063
ALAEGHGDAAVLLVEKY [NAS6]		3.12 ± 0.1	3.04 ± 0.09	2.6 ± 0.11
ALAQQKLLTPQDMEAAK [GAL11]	3.2 ± 0.12	3.38 ± 0.13	3.4 ± 0.1	3.32 ± 0.095
ALELDDTVVSRVNEMVQ [ECM29]	3.16 ± 0.17			3.16 ± 0.1
ALERNWPIVNSKVYFNN [RPN12]	1.93 ± 0.08	1.7 ± 0.072	1.38 ± 0.12	1.9 ± 0.087
ALFVFYSPNTLGHPDNY [COB]	1.39 ± 0.09	1.36 ± 0.069	2.06 ± 0.11	1.87 ± 0.054
ALGEFADWDPESMAYTA [YML031W/NDC1]	3.52 ± 0.14	3.54 ± 0.089	3.36 ± 0.083	3.26 ± 0.064
ALNDVYLDADVAKLANW [YML031W/NDC1]	2.85 ± 0.2	3.52 ± 0.22	3.67 ± 0.22	3.73 ± 0.24
ALNNAIPGGPKFEPLYP [PRP8]	3.1 ± 0.069	2.96 ± 0.086	2.95 ± 0.09	3.06 ± 0.046
ALNSMCASIPIAIIKDT [RRP46]	1.48 ± 0.12	1.67 ± 0.08	1.8 ± 0.097	1.79 ± 0.073
ALRALARSGLRIGRIED [RPS14A]		2.12 ± 0.096	2.33 ± 0.1	2.01 ± 0.071
ALRDVKNNNNANNNGSN [GAL11]	3.33 ± 0.095	2.95 ± 0.14	3.13 ± 0.12	3.41 ± 0.11

Sequence	protein stability index (doa10∆)	protein stability index (pdr5∆)	protein stability index (san1∆)	protein stability index (ubr1∆)
ALSGLYYKNFHNSVKRY [SNM1]	1.59 ± 0.27		1.17 ± 0.17	1.22 ± 0.093
ALTQMDQDKVNFASGDN [RPB3]	3.33 ± 0.14	3.5 ± 0.13	3.08 ± 0.15	3.65 ± 0.28
ALYVLRERIRKGLQIYQ [PRP8]	2.54 ± 0.24	2.85 ± 0.11	2.26 ± 0.13	2.41 ± 0.29
AMSTVTLGVVGKSEKLS [SKI6]	2.81 ± 0.079	3.19 ± 0.081	2.75 ± 0.099	2.93 ± 0.073
AMTIYWDDHTKKPLSMA [CDC53]	2.87 ± 0.077	2.67 ± 0.091	2.69 ± 0.048	2.85 ± 0.062
ANDEEAYIKLLDQTKDT [SNF2]	2.98 ± 0.088	3.21 ± 0.072	3.4 ± 0.069	3 ± 0.1
ANDFQLTIVTCKQFPKL [SRB8]	1.83 ± 0.047	1.96 ± 0.041	1.82 ± 0.073	1.82 ± 0.034
ANFGEILEDFRVIKDFK [YMR153W/NUP53]	3.07 ± 0.14	3.4 ± 0.16	3.37 ± 0.068	3.28 ± 0.096
ANGTVVSFIKNGEEIVG [MTR3]	1.34 ± 0.07	1.6 ± 0.13	1.45 ± 0.21	1.91 ± 0.11
ANICLTFLESINGINWR [SIN4]	2.54 ± 0.043	2.31 ± 0.046	2.46 ± 0.058	2.36 ± 0.042
ANKEKRAIILERNAAYQ [RPL7A]	1.2 ± 0.072	1.38 ± 0.081	1.14 ± 0.11	1.32 ± 0.2
ANPAGASQPEPTTNEPA [YJL041W/NSP1]	2.82 ± 0.12	3 ± 0.11	2.92 ± 0.1	3.16 ± 0.095
ANRVTDKLTRVHDKIWC [PRE3]	2 ± 0.12	2.42 ± 0.085	2.38 ± 0.063	2.34 ± 0.095
ANSSTIRVTNSFALPFE [RPN8]	2.46 ± 0.065	2.18 ± 0.05	2.73 ± 0.063	3.14 ± 0.039
ANTGGGLFGANSNSNSG [YGL172W/NUP49]	2.11 ± 0.11	2.74 ± 0.077	1.76 ± 0.17	2.22 ± 0.14
APIGKHYVVLDTNVVLQ [DIS3]	2.93 ± 0.13	2.81 ± 0.14	2.04 ± 0.16	2.31 ± 0.12
APLFKKNSSRPMPPIRG [SMD3]	2.42 ± 0.059	2.29 ± 0.064	2.39 ± 0.062	2.5 ± 0.061
APLKHGVGILYKGMASN [BRR2]	1.93 ± 0.078	1.68 ± 0.076	1.38 ± 0.13	1.3 ± 0.11
APLVLLSALDHYERTQT [RPN8]	2.45 ± 0.051	2.45 ± 0.053	2.39 ± 0.057	2.42 ± 0.039
APNTLTNILISPLNTTT [YML103C/NUP188]	2.23 ± 0.062	2.13 ± 0.057	2.03 ± 0.086	1.82 ± 0.045
APRQEISEEETTVKPLF [YAR002W/NUP60]	3.22 ± 0.11	3.22 ± 0.11	3.23 ± 0.067	3.56 ± 0.17
APTPAAPGASVPATAAP [SWI1]	2.93 ± 0.068	3.05 ± 0.054	3.11 ± 0.042	3.21 ± 0.05
AQFYLGKRIAYVYRASK [RPL33A]	1.81 ± 0.068	1.62 ± 0.076	1.36 ± 0.096	1.74 ± 0.069
AQHESFLRQKICLMTLI [RPN9]	1.26 ± 0.072	1.33 ± 0.082	1.15 ± 0.11	1.56 ± 0.064
